The target of this assay is CD3 on human T cells (human PBMCs or isolated T cells used as effector cells) (human, UniProt P07766 23-207; P04234 22-171; P09693 23-182). As to the kind of experiment: cell-based or functional assay.
Sequence of CD3 on human T cells (human PBMCs or isolated T cells used as effector cells) (P07766 23-207, chain 1 of 3): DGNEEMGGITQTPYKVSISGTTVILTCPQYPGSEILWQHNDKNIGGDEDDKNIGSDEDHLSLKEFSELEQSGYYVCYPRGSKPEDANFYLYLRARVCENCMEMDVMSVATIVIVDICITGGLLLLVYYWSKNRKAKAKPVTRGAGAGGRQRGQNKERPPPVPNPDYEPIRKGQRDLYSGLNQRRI
Sequence of CD3 on human T cells (human PBMCs or isolated T cells used as effector cells) (P04234 22-171, chain 2 of 3): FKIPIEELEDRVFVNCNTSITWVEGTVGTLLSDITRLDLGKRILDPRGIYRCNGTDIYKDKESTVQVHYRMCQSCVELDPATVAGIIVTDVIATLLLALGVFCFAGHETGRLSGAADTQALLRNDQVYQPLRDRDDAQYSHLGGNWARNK
Sequence of CD3 on human T cells (human PBMCs or isolated T cells used as effector cells) (P09693 23-182, chain 3 of 3): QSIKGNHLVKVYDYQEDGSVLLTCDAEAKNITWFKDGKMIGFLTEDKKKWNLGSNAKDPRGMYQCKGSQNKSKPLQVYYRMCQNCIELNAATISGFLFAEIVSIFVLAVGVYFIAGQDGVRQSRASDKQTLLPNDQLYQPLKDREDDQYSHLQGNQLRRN

B1: PR008551, anti-B7H4xCD3 VH(3G11)-Fc-scFv(PR003366), hIgG1(dCH1, KiH, AAA) (bispecific antibody)
chain 1: RVHLAESGGGLVQAGGSLRLSCAASGSRLNDNAMAWFRQAPGKEREFVGSIFWTGGNTYYADAVKGRLTISRDNAKNALYLQMNSLKPEDTAVYYCAASRVVWYYCSGYGCSRAGDYVYWGQGTQVTVSSASEPKSSDKTHTCPPCPAPEAAGAPSVFLFPPKPKDTLMISRTPEVTCVVVDVSHEDPEVKFNWYVDGVEVHNAKTKPREEQYNSTYRVVSVLTVLHQDWLNGKEYKCKVSNKALPAPIEKTISKAKGQPREPQVYTLPPCREEMTKNQVSLWCLVKGFYPSDIAVEWESNGQPENNYKTTPPVLDSDGSFFLYSKLTVDKSRWQQGNVFSCSVMHEALHNHYTQKSLSLSPGK
chain 2: EIVMTQSPASLSVSPGERATLSCRASQSVSSNLAWYQQKPGQAPRLLIYGASTRATGIPARVSGGGSGTEFTLTISSLQSEDFAVYYCQQYKNWPFTFGPGTKLEIKGGGGSGGGGSGGGGSGGGGSQVQLVQSGAEVKKPGSSMRVSCKASEDTFSSYAISWVRQAPGQGLEWMGGTAPIFGTTNYAQKFQGRVTITADKSTSTAYMELSSLRSEDTAVYYCARGGPYFDYWGQGTLVTVSSASEPKSSDKTHTCPPCPAPEAAGAPSVFLFPPKPKDTLMISRTPEVTCVVVDVSHEDPEVKFNWYVDGVEVHNAKTKPREEQYNSTYRVVSVLTVLHQDWLNGKEYKCKVSNKALPAPIEKTISKAKGQPREPQVCTLPPSREEMTKNQVSLSCAVKGFYPSDIAVEWESNGQPENNYKTTPPVLDSDGSFFLVSKLTVDKSRWQQGNVFSCSVMHEALHNHYTQKSLSLSPGK
On to B1, for which the “EC50 of T cell-mediated cytotoxicity to MDA-MB-468 (RTCA)” value (“EC50 of T cell-mediated cytotoxicity” for short) was 15.2 nM and the “Max cytotoxicity (%) of T cell-mediated cytotoxicity to MDA-MB-468 (RTCA)” value (shortened to “Max cytotoxicity (%)”) was found to be 90.7%.

B2: PR003733, anti-B7H4xCD3 Fab(PR001848)-Fc-scFv(PR003366), hIgG1(KiH, LALA) (bispecific antibody)
heavy: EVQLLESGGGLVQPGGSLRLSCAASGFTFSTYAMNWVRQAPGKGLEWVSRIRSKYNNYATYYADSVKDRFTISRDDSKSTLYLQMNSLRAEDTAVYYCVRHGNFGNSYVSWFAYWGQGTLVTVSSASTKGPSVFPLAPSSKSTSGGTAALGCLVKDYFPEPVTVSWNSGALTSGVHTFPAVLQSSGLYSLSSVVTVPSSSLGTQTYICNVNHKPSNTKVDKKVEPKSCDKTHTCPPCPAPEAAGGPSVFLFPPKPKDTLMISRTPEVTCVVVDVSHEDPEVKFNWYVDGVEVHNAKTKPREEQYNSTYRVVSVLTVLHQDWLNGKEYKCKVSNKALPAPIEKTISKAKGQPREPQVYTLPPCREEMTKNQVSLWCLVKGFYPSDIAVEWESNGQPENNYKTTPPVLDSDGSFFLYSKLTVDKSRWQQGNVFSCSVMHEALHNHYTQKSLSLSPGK
light: QAVVTQEPSLTVSPGGTVTLTCRSSTGAVTTSNYANWVQQKPGQAPRGLIGGTNKRAPWTPARFSGSLLGDKAALTLLGAQPEDEAEYFCALWYSNLWVFGGGTKLTVLGQPKAAPSVTLFPPSSEELQANKATLVCLISDFYPGAVTVAWKADSSPVKAGVETTTPSKQSNNKYAASSYLSLTPEQWKSHRSYSCQVTHEGSTVEKTVAPTECS
chain: EIVMTQSPASLSVSPGERATLSCRASQSVSSNLAWYQQKPGQAPRLLIYGASTRATGIPARVSGGGSGTEFTLTISSLQSEDFAVYYCQQYKNWPFTFGPGTKLEIKGGGGSGGGGSGGGGSGGGGSQVQLVQSGAEVKKPGSSMRVSCKASEDTFSSYAISWVRQAPGQGLEWMGGTAPIFGTTNYAQKFQGRVTITADKSTSTAYMELSSLRSEDTAVYYCARGGPYFDYWGQGTLVTVSSASEPKSSDKTHTCPPCPAPEAAGGPSVFLFPPKPKDTLMISRTPEVTCVVVDVSHEDPEVKFNWYVDGVEVHNAKTKPREEQYNSTYRVVSVLTVLHQDWLNGKEYKCKVSNKALPAPIEKTISKAKGQPREPQVCTLPPSREEMTKNQVSLSCAVKGFYPSDIAVEWESNGQPENNYKTTPPVLDSDGSFFLVSKLTVDKSRWQQGNVFSCSVMHEALHNHYTQKSLSLSPGK
On to B2, for which the “EC50 of T cell-mediated cytotoxicity” value turned out to be 0.0248 nM and the “Max cytotoxicity (%)” value worked out at 95.2%.

B3: PR003899, anti-B7H4xCD3 Fab(PR003886)-Fc-scFv(PR003366), hIgG1(KIH, LALA) (bispecific antibody)
heavy: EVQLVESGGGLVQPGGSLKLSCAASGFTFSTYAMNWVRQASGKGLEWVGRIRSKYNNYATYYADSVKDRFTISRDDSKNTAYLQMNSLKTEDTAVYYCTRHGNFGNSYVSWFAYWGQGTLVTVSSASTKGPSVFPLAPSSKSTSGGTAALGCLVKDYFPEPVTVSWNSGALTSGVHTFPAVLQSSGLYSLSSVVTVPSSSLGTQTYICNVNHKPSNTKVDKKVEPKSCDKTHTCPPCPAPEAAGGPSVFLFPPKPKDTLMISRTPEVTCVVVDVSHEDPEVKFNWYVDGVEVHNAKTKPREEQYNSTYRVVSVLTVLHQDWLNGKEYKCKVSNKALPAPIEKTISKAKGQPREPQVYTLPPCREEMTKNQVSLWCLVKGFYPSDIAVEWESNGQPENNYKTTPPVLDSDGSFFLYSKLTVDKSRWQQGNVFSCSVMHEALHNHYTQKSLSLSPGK
light: QAVVTQEPSLTVSPGGTVTLTCRSSTGAVTTSNYANWVQQKPGQAPRGLIGGTNKRAPWTPARFSGSLLGDKAALTLLGAQPEDEAEYFCALWYSNLWVFGGGTKLTVLGQPKAAPSVTLFPPSSEELQANKATLVCLISDFYPGAVTVAWKADSSPVKAGVETTTPSKQSNNKYAASSYLSLTPEQWKSHRSYSCQVTHEGSTVEKTVAPTECS
chain: EIVMTQSPASLSVSPGERATLSCRASQSVSSNLAWYQQKPGQAPRLLIYGASTRATGIPARVSGGGSGTEFTLTISSLQSEDFAVYYCQQYKNWPFTFGPGTKLEIKGGGGSGGGGSGGGGSGGGGSQVQLVQSGAEVKKPGSSMRVSCKASEDTFSSYAISWVRQAPGQGLEWMGGTAPIFGTTNYAQKFQGRVTITADKSTSTAYMELSSLRSEDTAVYYCARGGPYFDYWGQGTLVTVSSASEPKSSDKTHTCPPCPAPEAAGGPSVFLFPPKPKDTLMISRTPEVTCVVVDVSHEDPEVKFNWYVDGVEVHNAKTKPREEQYNSTYRVVSVLTVLHQDWLNGKEYKCKVSNKALPAPIEKTISKAKGQPREPQVCTLPPSREEMTKNQVSLSCAVKGFYPSDIAVEWESNGQPENNYKTTPPVLDSDGSFFLVSKLTVDKSRWQQGNVFSCSVMHEALHNHYTQKSLSLSPGK
Take B3: the “EC50 of T cell-mediated cytotoxicity” value was found to be 0.112 nM and the “Max cytotoxicity (%)” value is 96.3%.
